The target of assay [1] is T1, Mouse GFRAL (mGFRAL) on HEK293 reporter cells with mouse RET (mouse, UniProt Q6SJE0 20-393).
T1 sequence (looked up): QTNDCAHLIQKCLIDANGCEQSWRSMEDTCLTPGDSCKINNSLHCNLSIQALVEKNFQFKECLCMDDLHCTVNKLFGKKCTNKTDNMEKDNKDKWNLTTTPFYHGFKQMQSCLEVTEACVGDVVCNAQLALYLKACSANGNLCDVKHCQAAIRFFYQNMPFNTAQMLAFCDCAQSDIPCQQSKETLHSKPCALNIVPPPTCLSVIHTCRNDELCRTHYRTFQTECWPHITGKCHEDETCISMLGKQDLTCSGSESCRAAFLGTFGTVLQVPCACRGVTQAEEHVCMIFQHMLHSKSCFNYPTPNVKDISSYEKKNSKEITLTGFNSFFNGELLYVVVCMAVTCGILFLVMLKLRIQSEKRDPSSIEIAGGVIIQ
As to the kind of experiment: cell-based or functional assay.

Assay [2] has as its target T2, Human GFRAL (hGFRAL) on HEK293 reporter cells with human RET (human, UniProt Q6UXV0 19-394).
T2 sequence (looked up): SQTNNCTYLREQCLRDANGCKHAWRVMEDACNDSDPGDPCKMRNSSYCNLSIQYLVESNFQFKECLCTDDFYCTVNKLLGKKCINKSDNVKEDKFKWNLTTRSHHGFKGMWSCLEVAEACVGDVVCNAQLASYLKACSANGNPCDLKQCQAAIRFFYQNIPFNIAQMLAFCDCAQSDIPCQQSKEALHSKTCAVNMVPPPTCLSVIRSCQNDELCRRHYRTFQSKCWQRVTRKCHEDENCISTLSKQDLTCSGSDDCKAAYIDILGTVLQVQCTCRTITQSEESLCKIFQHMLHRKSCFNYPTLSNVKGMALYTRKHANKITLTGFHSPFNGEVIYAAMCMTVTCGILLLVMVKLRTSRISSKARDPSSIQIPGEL
Description: cell-based or functional assay.

For assay [3], the target named is T1, Mouse GFRAL (mGFRAL) on HEK293 reporter …. Description: cell-based or functional assay. This is another data set of the same source.
The target of assay [4] is T2, Human GFRAL (hGFRAL) on HEK293 reporter …. As to the kind of experiment: cell-based or functional assay. The source holds these as a separate data set.
For assay [5], the target named is Cynomolgus monkey GFRAL-His protein (cynomolgus monkey). As to the kind of experiment: ELISA, antigen coated on plate, purified antibody titrated, HRP anti-mouse IgG detection. The method, then: (§1) The ELISA assay had the following protocols. Human GFRAL-His protein, cynomolgus monkey GFRAL-His protein, or mouse GFRAL-Fc protein were coated on 96-well plates, and after blocking the wells with PBS/1% BSA solution, the hybridoma supernatant or purified antibodies were added to the reaction wells. After incubation for 1 hour at room temperature, HRP-labeled anti-mouse IgG (Fab region) antibody was added to the reaction wells to incubate for an additional hour at room temperature. After the substrate and stop solution were added successively, the OD₄₅₀ values were read. The OD₄₅₀ values were used to verify and assess the binding ability of the antibodies to the GFRAL proteins.

Assay [6] deals with T3, Human GFRAL-His protein (human, UniProt Q6UXV0 19-351).
T3 construct: also called human GFRAL-His fusion protein; not shown: His tag
T3 sequence (looked up): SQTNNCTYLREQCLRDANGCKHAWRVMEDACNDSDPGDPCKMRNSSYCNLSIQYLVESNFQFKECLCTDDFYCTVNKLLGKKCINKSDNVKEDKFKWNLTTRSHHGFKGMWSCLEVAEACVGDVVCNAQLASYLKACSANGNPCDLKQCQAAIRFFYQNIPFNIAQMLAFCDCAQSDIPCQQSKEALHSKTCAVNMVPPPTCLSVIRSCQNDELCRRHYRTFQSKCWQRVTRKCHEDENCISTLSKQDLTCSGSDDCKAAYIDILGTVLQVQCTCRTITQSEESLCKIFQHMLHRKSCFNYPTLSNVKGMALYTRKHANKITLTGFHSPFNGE
The description is as above. On the procedure: as §1

Usually EC50 stands for the concentration at which the effect is half-maximal.

Positions count from the first letter of the chain named. Where two headings read alike, the source gives them in different places.

B1: 2D4H6aL6b (antibody, V domains shown)
VH: EVQLVESGGGLVKPGGSLRLSCAASGFTFSSFVMSWVRQAPGKGLEWVASITSGGTTFYPESVRGRFTISRDNAKNTLYLQMSSLRAEDTAVYYCARGPPQFSSLSMDYWGQGTTVTVSS
VL: DIQMTQSPSSLSASVGDRVTITCKASQNVGTAVSWFQQKPGKAPKLLIYSASNRYTGVPSRFSGSGSGTDFTLTISSLQPEDFATYYCQQYSSLFTFGGGTKLEIK
B1: the “IC50 (nM), luciferase reporter gene assay, Mouse GFRAL/mouse RET” value (“IC50 (nM) … Mouse GFRAL/mouse RET” below) in assay [1] came to 1.4 nM. Moreover, the “IC50 (nM), luciferase reporter gene assay, Human GFRAL/human RET” value (shortened to “IC50 (nM) … Human GFRAL/human RET”) in assay [2] is 24.4 nM.

B2: 2D4H6cL6c (antibody, V domains shown)
VH: B1 VH with E61D, R64K, K75R, T77I
VL: B1 VL with V19I, S60D
In the case of B2, the “IC50 (nM) … Mouse GFRAL/mouse RET” value in assay [1] stood at 1.3 nM. The “IC50 (nM) … Human GFRAL/human RET” value in assay [2] is 22.5 nM.

B3: 26D7H1aL2a (antibody, V domains shown)
VH: QVQLVQSGAEVKKPGASVKVSCKASGYTFTDYGMNWVRQAPGQGLEWMGWINTYTGEPTYADDFKDRVTMTTDTSTSTAYMELRSLRSDDTAVYYCARRYGYDAGIDAWGQGTLVTVSS
VL: EIVLTQSPGTLSLSPGERATLSCRASESVDSYGNNLMHWYQQKPGQAPRLLIYLASYLESGVPDRFSGSGSGTDFTLTISRLEPEDFATYYCQQNNESPWTFGQGTKVEIK
Consider B3, for which, in assay [1], the “IC50 (nM) … Mouse GFRAL/mouse RET” value is 7.7 nM. Also, the “IC50 (nM) … Human GFRAL/human RET” value in assay [2] stood at 2.6 nM.

B4: 26D7H2dL2a (antibody, V domains shown)
VH: B3 VH with V20I, E46K, M70F, T72L, T74A
VL: B3 VL
Take B4: the “IC50 (nM) … Mouse GFRAL/mouse RET” value in assay [1] was determined as 3 nM. In assay [2], the “IC50 (nM) … Human GFRAL/human RET” value worked out at 6.5 nM.

B5: 26D7H2aL2a (antibody, V domains shown)
VH: B3 VH with A24V, M48V, V68F, M70F, T72L, Y95F
VL: B3 VL
As for B5, the “IC50 (nM) … Mouse GFRAL/mouse RET” value in assay [1] stood at 1.6 nM. The “IC50 (nM) … Human GFRAL/human RET” value in assay [2] turned out to be 7.6 nM.

B6: 26D7H4aL4a (antibody, V domains shown)
VH: QIQLVQSGAEVKKPGASVKISCKVSGYTFTDYGMNWVRQTPGQGLKWVGWINTYTGEPTYADDFKDRFTFTLDASTSTAYLEIRSLRSDDTAVYFCARRYGYDAGIDAWGQGTLLTVSS
VL: B3 VL with L13V, L21I, D64A, G72R, L82V, V108L
With B6, in assay [1], the “IC50 (nM) … Mouse GFRAL/mouse RET” value amounted to 0.1 nM. Moreover, the “IC50 (nM) … Human GFRAL/human RET” value in assay [2] was found to be 5.7 nM.

B7: 26D7H5eL5c (antibody, V domains shown)
VH: QVQLVQSGSELKKPGASVKVSCKVSGYTFTDYGMNWVRQAPGQGLEWVGWINTYTGEPTYADDFKDRFVFSLDTSVSTAYLQISSLKAEDTAVYYCARRYGYDAGIDAWGQGTTVTVSS
VL: DIVLTQSPASLAVSPGQRATITCRASESVDSYGNNLMHWYQQKPGQPPKLLIYLASYLESGVPARFSGSGSGTDFTLTINPVEANDTANYYCQQNNESPWTFGGGTKLEIK
Consider B7, for which the “IC50 (nM) … Mouse GFRAL/mouse RET” value in assay [1] was determined as 0.7 nM. Besides, the “IC50 (nM) … Human GFRAL/human RET” value in assay [2] came to 8.3 nM.

B8: 26D7-mVH + mVL (antibody, V domains shown)
VH: QIQLVQSGPELKKPGETVKISCKVSGYTFTDYGMNWVKQTPGKDLKWVGWINTYTGEPTYADDFKDRFAFSLEASASTAYLQINNLKNEDTATYFCARRYGYDAGIDCWGQGTTLTVSS
VL: B7 VL with D1N, A9P, P15L, T22S, G72R, N80D, N85D, T87A, N89T, S98D
For the molecule B8, in assay [1], the “IC50 (nM) … Mouse GFRAL/mouse RET” value was 0.7 nM. Besides, the “IC50 (nM) … Human GFRAL/human RET” value in assay [2] is 8.7 nM.

B9: 26D7H5fL5c (antibody, V domains shown)
VH: B7 VH with V2I, V20I, T74A
VL: B7 VL
Take B9: the “IC50 (nM) … Mouse GFRAL/mouse RET” value in assay [1] came to 0.4 nM. The “IC50 (nM) … Human GFRAL/human RET” value in assay [2] worked out at 8.9 nM.

B10: 90E1 (antibody, V domains shown)
VH: EVQLQQSGPELVKPGASVKMSCKASGYTFTSYVIHWVKQEPGQGLEWIGYINPYNDDINYNEKFKGKATLTSDKSSSTAYMEFSSLTSEDSAVYYCARYDYDWYFDVWGAGTAVTVSS
VL: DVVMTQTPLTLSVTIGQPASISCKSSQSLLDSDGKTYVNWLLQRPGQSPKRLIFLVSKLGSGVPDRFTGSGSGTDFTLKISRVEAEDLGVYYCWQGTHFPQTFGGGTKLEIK
B10: the “IC50 (nM) … Mouse GFRAL/mouse RET” value in assay [3] was 75.5 nM. Moreover, the “IC50 (nM) … Human GFRAL/human RET” value in assay [4] worked out at 81.4 nM.

B11: 2D4-mVH + mVL (antibody, V domains shown)
VH: EVNLVESGGGLVKPGGPLKLSCAASGFTFSSFVMSWVRQTPEKRLEWVASITSGGTTFYPDSVKGRFTISRDNARNILYLQMSNLRSGDTAMYYCARGPPQFSSLSMDYWGQGTSVTVSS
VL: DIVMTQSQKFMSTSVGDRITITCKASQNVGTAVSWFQQKPGQVPKLLIYSASNRYTGVPDRFTGSGSGTEFTLTISNIQSEDLADYFCQQYSSLFTFGSGTKLEIK
As for B11, in assay [1], the “IC50 (nM) … Mouse GFRAL/mouse RET” value was found to be 1.4 nM. Besides, in assay [2], the “IC50 (nM) … Human GFRAL/human RET” value is 23.8 nM.

B12: 61G8 (antibody, V domains shown)
VH: QVQLKESGPGLVAPSQSLSITCTVSGFSLTGYGVNWVRQSPGKGLEWLGMIWGDGTTDYNSALKSRLTIRKDNSKSQVFLRMNSLQTDDTARYYCARDPKYNYGYAMDYWGQGTSVTVSS
VL: DIVLTQAPGSLAVSLGQRATISCRASESVDNFGNSFMHWYQQKPGQSPKLLIYRASNLESGIPARFSGSGSRTDFTLTINPVEADDVATYYCQQTNEEPYTFGGGTKLEIE
notes: Murine hybridoma antibody, purified
Consider B12, for which the EC50 in assay [5] came out at 0.08 nM; in assay [6], 0.07 nM. Moreover, the “IC50 (nM) … Mouse GFRAL/mouse RET” value in assay [3] was over 694 nM. Moreover, in assay [4], the “IC50 (nM) … Human GFRAL/human RET” value was determined as 11.6 nM.

B13: 33B12 (antibody, V domains shown)
VH: QVQLQQPGTELVKPGASVKLSCKASGYTFTRNWMHWLKQRPGQGLEWIGEIDPSDSYTHYNQKFKGKATLTVEMSSSTAYMQLRSLTSEDSAVYYCARVGNYDNGTDRLYAMDYWGQGTSVTVSS
VL: DIVLTQSPASLAVSLGQRATISCRASESVDNFGNTFLHWFRQKPGQPPKLLIYRASNLESGIPARFSGSGSRTDFTLTINPVEADDVATYYCQQNNEDPWTFGGGTKLEIK
notes: as for B12
B13: the values for the EC50 in assay [5] and in assay [6] were 0.08 nM and 0.06 nM, respectively. The “IC50 (nM) … Mouse GFRAL/mouse RET” value in assay [3] is over 694 nM. In addition, the “IC50 (nM) … Human GFRAL/human RET” value in assay [4] turned out to be 7.04 nM.

B14: 96C12 (antibody, V domains shown)
VH: RVQLRESGPGLVAPSQSLSITCTVSGFSLTGYSVNWVRQPPGKGLEWLGMIWGDGSTDYNSALKSRLSISKDNSKSQVFLKMNSLQTDDTARYYCARDRDYRYDGGYIMDSWGQGTSVTVSS
VL: B12 VL with A7S, M37L, S47P, I62V, N80S, T95S, E98D, Y100R, E111R
notes: as for B12
In the case of B14, the EC50 in assay [5] and in assay [6] was 0.03 nM throughout. In addition, the “IC50 (nM) … Mouse GFRAL/mouse RET” value in assay [3] is over 694 nM. The “IC50 (nM) … Human GFRAL/human RET” value in assay [4] stood at 6.42 nM.

B15: 82G8 (antibody, V domains shown)
VH: QVQLKESGPGLVAPSQSLSITCTVSGFSLTGHGVNWVRQPPGKGLEWLGMIWGDGYTDYNSALKSRLSISKDNSKSQVFLKMNSLQTDDTATYYCARDTYGRTYDYAMDYWGQGTSVTVSS
VL: B13 VL with T20A, F32Y, T35S, L37M, F40Y, R41Q, N95S, W100R
notes: as for B12
Regarding B15, the figures for the EC50 in assay [5] and in assay [6] were 0.04 nM and 0.03 nM, respectively. The “IC50 (nM) … Mouse GFRAL/mouse RET” value in assay [3] is over 694 nM. Also, the “IC50 (nM) … Human GFRAL/human RET” value in assay [4] came to 5.67 nM.

B16: 36D1 (antibody, V domains shown)
VH: B13 VH with L11F, E73D, M74K, R84S, T106K
VL: B13 VL
notes: as for B12
Regarding B16, the results for the EC50 in assay [5] and in assay [6] were 0.07 nM and 0.18 nM, respectively. Also, the “IC50 (nM) … Mouse GFRAL/mouse RET” value in assay [3] was over 694 nM. Besides, the “IC50 (nM) … Human GFRAL/human RET” value in assay [4] turned out to be 6.89 nM.

The record behind these values is patent US20240368286A1 (SHANGHAI JMT BIO TECHNOLOGY, published 2024).
